Data reported in patent EP1591450A1, “CONJUGATE FOR RETENTION IN BLOOD AND CANCER TISSUE-SPECIFIC DRUG DELIVERY” (YAMANOUCHI PHARMACEUTICAL CO. LTD., priority 2003, dated 2004).
Where a SMILES comes first, the peptide text is derived from it. The star is where a group is joined. X1 = O=C(OCC1c2ccccc2-c2ccccc21)N(CC(=O)*)C(=O)OCC1c2ccccc2-c2ccccc21; Fmoc = O=C(OCC1c2ccccc2-c2ccccc21)*

Legend:
[1] = biological target: T1, MMP-2 (Homo sapiens, UniProt P08253); assay: Enzymatic degradation of peptide and peptide-PEG by MMP-2; assay type: biochemical; conditions: beginning of reaction (15 minutes), 37°C, Tris buffer pH 7.5; Figure 4
T1 sequence (P08253 110-660): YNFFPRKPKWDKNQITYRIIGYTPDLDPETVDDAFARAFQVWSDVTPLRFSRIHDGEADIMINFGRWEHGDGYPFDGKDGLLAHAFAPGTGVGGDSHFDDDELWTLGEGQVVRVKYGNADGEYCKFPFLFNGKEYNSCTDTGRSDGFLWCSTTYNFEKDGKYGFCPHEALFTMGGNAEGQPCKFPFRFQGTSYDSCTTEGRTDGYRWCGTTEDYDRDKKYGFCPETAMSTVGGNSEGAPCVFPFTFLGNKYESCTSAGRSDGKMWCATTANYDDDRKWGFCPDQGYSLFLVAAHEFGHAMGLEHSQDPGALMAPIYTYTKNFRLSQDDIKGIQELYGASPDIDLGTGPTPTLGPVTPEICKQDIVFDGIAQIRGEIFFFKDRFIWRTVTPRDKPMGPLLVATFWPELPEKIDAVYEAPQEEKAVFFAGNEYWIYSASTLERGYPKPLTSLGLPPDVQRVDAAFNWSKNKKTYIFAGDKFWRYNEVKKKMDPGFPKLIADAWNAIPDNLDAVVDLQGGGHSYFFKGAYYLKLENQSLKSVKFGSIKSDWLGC
Method: After mixing in 0.5 ml of sample in 0.5 ml of acetonitrile, the mixture was filtered and gel filtration was performed.
MMP-2 solution was diluted with Tris buffer. […] The final concentration of MMP-2 was 0.34 µg/ml. […] The Fmoc-GPQGIAGWG-PEG in the filtrate was separated and quantitatively determined by gel filtration.

[2] = Particle diameter determination of peptide-PEG micelles (NICOMP Model 370); assay type: physicochemical
Method: The particle diameter of the micelles and the liposomes was determined with the NICOMP Model 370 (Particle Sizing Systems, Inc.).
Then particle diameter was determined by a laser diffraction particle diameter distribution determination device (NICOMP Model 370)(Table1).

[3] = biological target: T2, trypsin (Bos taurus, UniProt P00760); assay: Enzymatic degradation of peptide by trypsin; assay type: biochemical; conditions: trypsin 10 µg/ml, 37°C, Tris buffer pH 7.5
T2 construct: gene PRSS1
T2 sequence (P00760 24-246): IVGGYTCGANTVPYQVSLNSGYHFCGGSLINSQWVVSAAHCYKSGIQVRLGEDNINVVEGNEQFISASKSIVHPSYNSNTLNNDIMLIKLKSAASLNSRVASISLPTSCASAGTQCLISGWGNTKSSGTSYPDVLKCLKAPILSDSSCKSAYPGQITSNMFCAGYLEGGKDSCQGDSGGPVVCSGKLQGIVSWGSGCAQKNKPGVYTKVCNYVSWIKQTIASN
Method: (§1) Fmoc-[…] was dissolved in Tris buffer (100 mM Tris/100 mM NaCl/10 mM CaCl2/0.05% BRIJ35, pH 7.5) and adjusted to a pre-determined concentration. MMP-2, collagenase, carboxypeptidase A, aminopeptidase-1, and trypsin were each diluted or dissolved in Tris buffer. Each enzyme solution was added to Fmoc-[…] solution that had been heated to 37°C and incubated for a pre-determined time at 37°C. The final concentration of the enzymes was as shown below: MMP-2: 0.17 µg/ml, collagenase: 7 µg/ml, carboxypeptidase A: 10 µg/ml, aminopeptidase-1: 10 µg/ml, trypsin: 10 µg/ml. After a pre-determined time, the same amount of acetonitrile was added to the sample solutions and they were filtered with a 0.5 µm filter (Millex-LH MILIPORE).

[4] = system: aminopeptidase-1; conditions: per unit weight of enzyme and unit time, beginning (15 minutes) of reaction, 37°C, Tris buffer pH 7.5; MMP-2 0.17 µg/ml, aminopeptidase-1 10 µg/ml
Method: as §1

[5] = system: collagenase; conditions: per unit weight of enzyme and unit time, beginning (15 minutes) of reaction, 37°C, Tris buffer pH 7.5; MMP-2 0.17 µg/ml, collagenase 7 µg/ml
Method: as §1

[6] = biological target: carboxypeptidase A (Homo sapiens, UniProt P15085); conditions: per unit weight of enzyme and unit time, beginning (15 minutes) of reaction, 37°C, Tris buffer pH 7.5; MMP-2 0.17 µg/ml, carboxypeptidase A 10 µg/ml
Method: as §1

Sequence of carboxypeptidase A (P15085 111-419): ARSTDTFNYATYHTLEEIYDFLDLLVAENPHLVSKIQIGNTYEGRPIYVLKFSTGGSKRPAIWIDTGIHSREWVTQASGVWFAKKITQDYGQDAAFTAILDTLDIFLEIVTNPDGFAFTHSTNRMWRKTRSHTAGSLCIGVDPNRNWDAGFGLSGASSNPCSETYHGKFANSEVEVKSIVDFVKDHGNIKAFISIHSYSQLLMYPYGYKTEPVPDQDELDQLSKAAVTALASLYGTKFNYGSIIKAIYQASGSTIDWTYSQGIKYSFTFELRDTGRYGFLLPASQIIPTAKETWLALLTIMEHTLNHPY

Q: With “9-fluorenylmethyloxycarbonyl (Fmoc)-glycyl-prolyl-glutamyl-glycyl-isoleucyl-alanyl-glycyl-tryptophanyl-glycyl (Gly-Pro-Gln-Gly-Ile-Ala-Gly-Trp-Gly)-amide propyl polyoxyethylene methyl ether (Fmoc-GPQGIAGWG-{amide propyl polyoxyethylene methyl ether}; not fully specified) [Fmoc-GPQGIAGWG-PEG]” as the compound, how does the “degradation rate by MMP-2 per unit weight of MMP-2 and unit time, peptide compared with peptide-PEG” value [1] read?
A: Its value is “virtually the same”.

Q: And the Particle diameter ([2]; Concentration 5 µM in Tris buffer pH 7.5)?
A: Its Particle diameter is 232 nm.

Q: What about the Particle diameter ([2]; Concentration 10 µM in Tris buffer pH 7.5) of the same compound?
A: Its Particle diameter is 200 nm.

Q: What about the Particle diameter ([2]; Concentration 20 µM in Tris buffer pH 7.5) of the same compound?
A: Its Particle diameter is 205 nm.

Q: What about the Particle diameter ([2]; Concentration 50 µM in Tris buffer pH 7.5) of the same compound?
A: Its Particle diameter is 210 nm.

Q: What about the Particle diameter ([2]; Concentration 100 µM in Tris buffer pH 7.5) of the same compound?
A: The Particle diameter was 237 nm.

Q: What about the “particle diameter of aggregate” value ([2]; at 5 µm or more) of the same compound?
A: The value was “approximately 200 nm”.

Q: What about the critical micelle concentration ([2]; concluded from particle diameter and laser scattering intensity, Tris buffer pH 7.5) of the same compound?
A: The critical micelle concentration was roughly 5 µM.

Q: For `CC[C@H](C)[C@H](NC(=O)CNC(=O)[C@H](CCC(=O)O)NC(=O)[C@@H]1CCCN1C(=O)CN(C(=O)OCC1c2ccccc2-c2ccccc21)C(=O)OCC1c2ccccc2-c2ccccc21)C(=O)N[C@@H](C)C(=O)NCC(=O)N[C@@H](Cc1c[nH]c2ccccc12)C(=O)NCC(=O)O` [Fmoc-GPQGIAGWG, 9-fluorenylmethyloxycarbonyl (Fmoc)-glycyl-prolyl-glutamyl-glycyl-isoleucyl-alanyl-glycyl-tryptophanyl-glycine (Gly-Pro-Gln-Gly-Ile-Ma-Gly-Trp-Gly)] (X1-PEGIAGWG-OH), which “degradation rate by MMP-2 per unit weight of MMP-2 and unit time, peptide compared with peptide-PEG” value [1] is on record?
A: The value was “virtually the same”.

Q: What about the Degradation by trypsin [3] of the same compound?
A: Its Degradation by trypsin is “not observed”.

Q: And the “degradation rate by MMP-2 relative to that of aminopeptidase-1” value [4]?
A: The value was 14.2 x.

Q: And the “degradation rate by MMP-2 relative to that of collagenase” value [5]?
A: Its value is 26.9 x.

Q: What about the “degradation rate by MMP-2 relative to that of carboxypeptidase A” value [6] of the same compound?
A: The value was 38.8 x.
